From the DeepSol protein solubility set

assay: soluble on expression in E. coli; label from the status in PepcDB or PDB records

Sequence | soluble on expression in E. coli
MGYCIIIPAYNAARTLPAVVREVLGLGMPCLVVDDGSTDGTSATVEGLGVHLLRHDGNRGKGAALRTGFEWALAHGYSGVVTLDADGQHDPTAIPLLAATARERNVDILIASRDTQFREMAGLRSVWNRFGVWCMRKRTGFTITDSQSGFRWYSARLLKGVSLEASGYHLEMEILMKAWRGGFAIDSLPVAARVADGRATSHFRPVRDTWNICMTFLRHMLEHHHHHH | soluble
MSGEVGSNECLVSTNEVQEDSPAVTESSSANGSSPVRRGRGRPPKGTKVPKVKPAPKPYSGAPRGRPRKSDQVAKSPVAKSPVASSSADASPKRSRGAPKSYAEDVAATKPAKTDVATPALAALTGEKKGRGRPKKN | soluble
MAHHHHHHMRARPSWHLRLNKNRDDVTTFRGFPATARSCCSIGSISGLQALPHPMELSSVEYRSEGWTHAICRLYRTLYKLHAKQLHPIQREFGDRFVQTEFQRHIDASEKHARIFYQSWYSYAVQLLVGQTSRDMTAEEQQQLTPEQKETMRRLRSHVLQAKQSEPGFHL | not soluble
MSLDLFRSEPVAQPLAARLRPANLDEYVGQEHLLARGKPLREALEQGALHSMIFWGPPGVGKTTLARLLAQVSDAHFETISAVLSGVKEIRQAVEVAKQHAAQYGRRTILFVDEVHRFNKSQQDAFLPYVEDGTLIFIGATTENPSFELNNALLSRARVYVLKSLDEAALRKLVGRALNEDKGLGKRKLRLPEESFQVLLAAADGDGRRLLNLLENAADLAEDGSEISPELLQNLLGDTRRRFDKGGEAFYDQISALHKSVRGSNPDAALYWFARMLDGGCDPLYIARRVVRMASEEVGNADPRALGLCLSAWDVQERLGSPEGELAVAQAIVYLACAPKSNAVYSAFNAAMRDVAESGSREVPLHLRNAPTKLMKSLGYGEEYRYAHDEPDAYAAGEDYFPEDLEPRRYYQPVPRGLELKIRDKLEHLAELDRTSPRQREGHHHHHH | soluble
MSLALRLIERDPYEHPERLRQLQQELEAFRGQLGDVGALDTVWRELQDAQEHDARGRSIAIARCYSLKNRHQDVMPYDSNRVVLRSGKDDYINASCVEGLSPYCPPLVATQAPLPGTAADFWLMVHEQKVSVIVMLVSEAEMEKQKVARYFPTERGQPMVHGALSLALSSVRSTETHVERVLSLQFRDQSLKRSLVHLHFPTWPELGLPDSPSNLLRFIQEVHAHYLHQRPLHTPIIVHCSSGVGRTGAFALLYAAVQEVEAGNGIPELPQLVRRMRQQRKHMLQEKLHLRFCYEAVVRHVEQVLQRHGEGHHHHHH | soluble
MGSDKIHHHHHHMCSVSGVLILNPKNFEKVELKLASILKKAEDRGRDSFGIVVIQKDGTVKVRKSIGKPSEKEELLYGILDEDSRVVIANNRAEPTTEYVRQKTEDDIQPFIGDRYIVTHNGIIANDLELEKKYELKRKTKIDSAILPLLLDKTWDGNLEALKGILEQIKGSFALVIGDKKNPDRIFLAQNFKPLYMAYDHSLESLFFTSLDEYFDAKPFDPVNITKLEPYSVVMVTSNKLITTLPIMEKRKKYRVLVVASGGLDSTVAATKLLREGHEVTLIHFNYHHKAEEKEREAVRKIAEYLQIPLLEINTDLFKIIGHATLIKGGGEIVKDRKGEEGAEFAHEWVPARNLIFFSVSLAIAEAYGYDAIASGINLEEAGAYPDNEMEFIRMLNKLSPYATGPNKRIEILMPVGNLVKHEIVKLGYEIGAPLHLTWSCYEGGQKHCGKCGPCYMRKMAFRINGLKDPVEYDEE | not soluble
SMVSPEEAVKWGESFDKLLSHRDGLEAFTRFLKTEFSEENIEFWIACEDFKKSKGPQQIHLKAKAIYEKFIQTDAPKEVNLDFHTKEVITNSITQPTLHSFDAAQSRVYQLMEQDSYTRFLKSDIYLDLMEGRPQRPTNLRRRSRSFTCNE | soluble
MCTKNETKPLPSFIEERLNFHIQDLIKSNENQKHLVLGKRPSENAVVMQSNDYLSLSHNELIQKAHRDAISERDDNVVMSAIFLQDDQSKPAFEHQLATFVGMESCLLSQSGWAANIGLLQTICAPNLPVYIDFFAHMSLWEGARTAGAQIHPFMHNNMNHLRKQIQRHGAGIIVVDSVYSTIGTIAPLRAIYEMAKEFDCGLVVDESHSLGTHGPEGSGLLQKLGLTQMVDFVTVSLAKTFAYRAGAILGPNKLAQSLPFVAYPAIFSSTVLPQEVVRLEKTLEVIKAADDKRECLFKRAKELAIGLKRIGFNIRSESQIIALECGSERNTERVRDFLEERDVFGAVFCRPATGRNKNIIRFSVNADMTAQQVDHVLSACQEAFDHPDLEFV | not soluble
MAHHHHHHMGTLEAQTQGPGSMNLDDIGSGSNAPEEVNVVIEVSQDSHPVKYEFDEKNGALWVDRFLPTAMYYPCNYGFIPNTIAGDGDPVDVLVLARFPVMPGAVICVRPVGVLMMNDEKGEDAKVLAVPATKVDQYYGNIVNYSDLPSSFLDSISHFFSFYKKLEKDKFVSVGCWQDAASAKELIRSAIIAAKKGEN | soluble
GSLATCIGEKIEDFKVGNLLGKGSFAGVYRAESIHTGLEVAIKMIDKKAMYKAGMVQRVQNEVKIHCQLKHPSILELYNYFEDSNYVYLVLEMCHNGEMNRYLKNRVKPFSENEARHFMHQIITGMLYLHSHGILHRDLTLSNLLLTRNMNIKIADFGLATQLKMPHEKHYTLCGTPNYISPEIATRSAHGLESDVWSLGCMFYTLLIGRPPFDTDTVKNTLNKVVLADYEMPSFLSIEAKDLIHQLLRRNPADRLSLSSVLDHPFMSRNSSTKSKDLGTVEDSIDSGHATISTAITASSSTSISGSLFDKRRLLIGQPLPNKMTVFPKEG | soluble
MGSDKIHHHHHHMKYYYKDGEGFNSKGVFIRVGSTKRVASFDEIQRMIRSHSSNDFELISIDRDDLTFEYIESRFKEKGIKFDVYALSLIGKDNKYNNAALLLSDQNPTISKFAVFQGTDVSVFLDKKEFTGSILKQLDEILYFASLSNRKRITISGKPGREEYLDIPKRALREAIVNCYCHRDYTLSGDVKIEFYDDRVQIFSPGSLPDGLTLENIKMGMVAKRNKIIVNTLDKIDVIENYASGVRRIFEDYADFTKQPEYYISNNGVIVTLFNRNYEAQNEAQNEAQILKLDNQKRIEKILELIKENKNITRSNLKDILGVSKSTIERDISKLKEEDKLEYIGSSRNGYWKVKNN | not soluble
MSRRLFGRLREALNRASEHIARGIVDTLAYKELKPEDLEPVLDDILIDLVESDVALEAAESIVAGVKEGLTGYRVRRGEPVEKVVRDALRKALLTLLDPGPRPDLAAEARRRCGGRPLVILFLGVNGTGKTTTIAKVAYMLRKAGVTPVIAAADTFRAGAQEQLAVHAEKLGVPIVRGRYGGDPASVAYDAVKHAESRGFCAVLVDTAGRMHVDSNLVEELRKIVRVVKPDYKILVVDSLTGNDAVEQARLFDEAVGVDGVIVTKVDADPKGGTLVSVAHAIRKPILYIGTGQRYEDLRPFDPQKIVDQLLG | soluble
MSLKAVFVYEPLGNENVKVEEVSEPKKEQGKVIIEVKKAGLNPIDYNVINGKIVYRLNPLPHIPGSEVYGIVKEDSGSFKKGERVIVYNRIFDGTCSQCISGNEHLCENGGIWGVVSNGGYSQLVQIDEKNVFRVPEDASDELAASIGVAALTSFRAIRISGCSPGRSILIYGASGNTGMFAVQLASMMGCDVYAVSRKDWIESFGAIEVFRPDNIPPDMKFDIIINPLGSLFWGDALKHLRTRGILVSFGVLTGREGSIDIADLYTGEKKILGSTGGTREDLRGLLEFMKTHELRVKIAREFKINEIKDALKYYSETHDGRILISMREGHHHHHH | not soluble
MAHHHHHHMQLKERLQQWRERGLQGADVDPPVQRPRSFRPSCIVPRLYLGAAKDVQDVRTLRSRLLPDKLLMVVSTCDPSDPPRMELRQIAPTKGTAYTVKRLAVCSWEELEKRVVTSSFCCRLPRNEVMVATAEWLKEVLKTKSLPPVSLEECRDVQKGETDGKVSEVFEEGLYLKLCLPWKDESNFTVRPYFAVATALIHATMDGIQGAVVCYCMAGKSRSATLTCALLLYCCYDNVGRPKDEEECSAYKAVQAVVEFVREVRLCVSPNEGFIEQLRDYASDLLAV | not soluble
SLVTSLKGLWTLRAFGRQPYFETSGGGSGGGSGGGSGGGSGGGEYNLTTTEVVMENVTAFWEEGGTPVLKDINFKIERGQLLAVAGSTGAGKTSLLMMIMGELEPSEGKIKHSGRISFCSQFSWIMPGTIKENIIFGVSYDEYRYRSVIKACQLEEDISKFAEKDNIVLGEGGITLSGGQRARISLARAVYKDADLYLLDSPFGYLDVLTEKEIFESCVCKLMANKTRILVTSKMEHLKKADKILILHEGSSYFYGTFSELQNLQPDFSSKLMG | soluble
MHENQQPQTEAFELSAAEREAIEHEMHHYEDPRAASIEALKIVQKQRGWVPDGAIHAIADVLGIPASDVEGVATFYSQIFRQPVGRHVIRYCDSVVCHINGYQGIQAALEKKLNIKPGQTTFDGRFTLLPTCCLGNCDKGPNMMIDEDTHAHLTPEAIPELLERYK | not soluble
MNSGPKVSVIMGIYNCERTLAESIESILSQSYKNWELILCDDASTDGTLRIAKQYAAHYSDRIKLIQNKTNKRLAASLNHCLSHATGDYIERQDGDDLSFPRRLEKQVAFLEKHRHYQVVGTGMLVFDEFGVRGARILPSVPEPGIMAKGTPFCHGTIMMRASAYRTLKGYRSVRRTRRMEDIDLWLRFFEEGFRGYNLQEALYKVREDSDAFKRRSFTYSIDNAILVYQACRRLKLPLSDYIYIAKPLIRAFMPAAVMNRYHKKRVMNQKEGLVKHELEHHHHHH | not soluble
MKQLTLAKTVKGVGIGLHKGEPIEITLEPLEANSGIVFFRSDLNASYKASPENVINTQMATVLGDDRGFISTIEHLMSAINAYGIDNVRIVLNANEAPVMDGSSISFCMMLDEAGVKELDAPKKIMVIKKPIEVRDGNKFVRLTPTKEPRINYTIKFDNAVIGEQSYNFEFSKKNYIENIARARTFGFLKDVQALRSMNLALGGSLENTIVVDENRILNPEGLRFKDEFVRHKILDAIGDLTLLGYRVFGDYTSYAGSHHLNHLLTKEVLKDKDAYEIVSLEKTTQKAYEKVFALEHHHHHH | soluble
MSEIALEAWGEHEALLLKPPRSPLSIPPPKPRTAVLFPRREGFYTELGGYLPEVRLRFETYGTLSRRRDNAVLVFHALTGSAHLAGTYDEETFRSLSPLEQAFGREGWWDSLVGPGRILDPALYYVVSANHLGSCYGSTGPLSLDPRTGRPYGRDFPPLTIRDLARAQARLLDHLGVEKAIVIGGSLGGMVALEFALMYPERVKKLVVLAAPARHGPWARAFNHLSRQAILQDPEYQKGNPAPKGMALARGIAMMSYRAPEGFEARWGAEPELGETYLDYQGEKFLRRFHAESYLVLSRAMDTHDVGRGRGGVEEALKRLRAIPSLFVGIDTDLLYPAWEVRQAAKAAGARYREIKSPHGHDAFLIETDQVEEILDAFLP | soluble
MPRKKSAGPRSFGEPLTDDPDDAPELLDEFFRTGEIRVDGKIVRRGRPPLGTQPKSSVTLRLDADVLDAYRALGRGWQSQINADLRRVRKLKKA | not soluble
MQDEFDLFRTETKGIKPIKQDTFVAPRQKRDQKKIELKELRAKEDTLFYFSDEYEPLLNDNDGVVKYLRDGEDSHLLKQLRRGDFSPELFLDLHGLTREQAKQELAALLLACENEHVDCASIMTGYGTFTLKKQIPRWLVQHPKVRALHQAPREWGGEAAILILVDL | soluble
MENIFLKRLEFKAFEEDSVFSKIEGLNKFNSLNFKKPITFFSGENGTGKSTLLEAIAVNWGFNPEGGSINFNFSTKDTHLDLHNYLTVGKSVKRATDGFFLRAESFYNVATYAENIDLDFSEYGDKSLHHQSHGESFLNLVNHRFRGNGLYLLDEPEAALSPQRQLALMISIKKLIDEGSQFIIVSHSPILLAMPDSQIISFDKDSPLEITYEESMPYEITSLFLNNKNRILSHLFAELEHHHHHH | soluble
